# Reference: patent US20210070872A1 (AGENUS, published 2021)
# T1: biotinylated GITR (human, UniProt Q9Y5U5 26-161, limits assumed, biotinylated (sites not given))
# T1 construct: also called GITR-bio; Biotin-GITR
# T1 sequence: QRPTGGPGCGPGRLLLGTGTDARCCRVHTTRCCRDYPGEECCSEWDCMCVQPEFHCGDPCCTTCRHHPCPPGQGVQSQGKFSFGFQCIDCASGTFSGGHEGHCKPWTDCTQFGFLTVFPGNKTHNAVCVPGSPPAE
# Molecular target: T1, biotinylated GITR
# Experiment: BLI (Octet), biotin-GITR on streptavidin tips, antibody supernatant
# Experimental: Several hundred germlined antibodies were selected based on binding kinetics as determined by Octet measurements (Octet RED 96 system; ForteBio™ Inc., Menlo Park, Calif.). The experimental procedure was configured according to the instruction manual of the instrument. Biotin-GITR was bound to Streptavidin biosensor (SA) and PBS (pH 7.4) was used as a blank control. Briefly, the interaction analyses were conducted at 30° C. in running buffer (PBS, 0.05% Tween, pH7.4). Sensor tips were pre-wet for 10 minutes in running buffer immediately prior to use, and the micro plates used in the Octet were filled with 200 μl of sample or buffer per well and agitated at 800 rpm. For the experiments, commercially available precoated SA tips were used. Biotinylated GITR was loaded onto the ForteBio SA fibers in PBS pH7.4 for 10 minutes and washed for 4 minutes. For the association phase, the ligand-coated SA tips were immersed for 5 minutes in cell culture supernatant that was diluted 1:10 in running buffer prior to the measurement. Dissociation of the antibody-antigen complex was measured in wells containing the Octet buffer alone for 5 minutes. After each run, the tips were regenerated with Glycine (10 mM, pH 2.0). Affinity, Kₒₙ and Koff were determined with Octet evaluation software v6.3 using a 1:1 binding model with local full fitting.
Binder,Kd,koff,kon
"germline variant antibody 10 (H1916A11 / K1916A11) (antibody, V domains shown, IGHG1/IGKC expression vectors; measured from CHO culture supernatant; also called Antibody ID 10) VH: QVQLVQSGAEVKKPGASVKVSCKASGYTFTEYAMYWVRQAPGQGLEWMGLIRTYSGGVSYNQKFRGRVTMTVDKSISTAYMELSRLRSDDTAVYYCAKSGTVRGFAYWGQGTLVTVSS VL: DIVMTQSPDSLAVSLGERATINCKSSQSLLNSSNQKNYLSWYQQKPGQPPKLLIYWASTRESGVPDRFSGSGSGTDFTLTISSVQAEDVAVYHCQNDYSYPYTFGQGTKLEIK",0.911 nM,0.00056 s⁻¹,615000 M⁻¹ s⁻¹
"germline variant antibody 38 (H1916D08 / K1916D08) (antibody, V domains shown, IGHG1/IGKC expression vectors; measured from CHO culture supernatant; also called Antibody ID 38) VH: QVQLVQSGTEVKKPGASVKVSCKGSGYTFTGYAMYWVRQAPGQGLEWIGVIKTYSGGVTYNQKFRGRVTMTVDKSISTAYMELSRLRSDDTAVYYCAKSGTVRGFAYWGQGTLVTVSS VL: DIVMTQSPDSLAVSLGERATINCKSSQSLLNSGNQKNYLTWYQQKPGQPPKLLIYWASTRESGVPDRFSGSGSGTDFTLTISSLQAEDVAVYYCQNDYSYPYTFGQGTKLEIK",0.0875 nM,0.00075 s⁻¹,8.57e+06 M⁻¹ s⁻¹
"germline variant antibody 15 (H1916B05 / K1916B05) (antibody, V domains shown, IGHG1/IGKC expression vectors; measured from CHO culture supernatant; also called Antibody ID 15) VH: QVQLVQSGAEVKKPGASVKVSCKGSGYTFTDYAMYWVRQAPGQGLEWIGVIRTFSGDVSYNQKFRERATMTVDKSISTAYMELSRLRSDDTAVYYCAKSGTVRGFAYWGQGTLVTVSS VL: DIVMTQSPDSLAVSLGERATINCKSSQSLLNSGNQKNYLSWYQQKPGQPPKLLIYWASTRESGVPDRFTGSGSGTDFTLTISSLQAEDVAVYHCQNDYSYPYTFGQGTKLEIK",2.22 nM,0.000616 s⁻¹,278000 M⁻¹ s⁻¹
"germline variant antibody 9 (H1916A10 / K1916A10) (antibody, V domains shown, IGHG1/IGKC expression vectors; measured from CHO culture supernatant; also called Antibody ID 9) VH: QVQLVQSGAEVKKPGASVKVSCKASGYTFTGYAMYWVRQAPGQGLEWMGLIRTYSGEVSYNQKFRGRATMTVDKSISTAYMELSRLRSDDTAVYYCAKSGTVRGFAYWGQGTLVTVSS VL: DIVMTQSPDSLAVSLGERATINCKSSQSLLNSGNQKNYLTWYQQKPGQPPKMLIYWASTRESGVPDRFSGSGSGTDFTLTISSLQAEDVAVYHCQNDYSFPYTFGQGTKLEIK",2.68 nM,0.000784 s⁻¹,293000 M⁻¹ s⁻¹
"germline variant antibody 11 (H1916Al2 / K1916A12) (antibody, V domains shown, IGHG1/IGKC expression vectors; measured from CHO culture supernatant; also called Antibody ID 11) VH: QVQLVQSGAEVKKPGASVKVSCKGSGYTFTDYAMHWVRQAPGQGLEWMGLIRTYSGGVSYNQKFRGRVTMTVDTSISTAYMELSRLRSDDTAVYYCAKSGTVRGFAYWGQGTLVTVSS VL: DIVMTQSPDSLAVSLGERATINCKSSQSLLNSSNQKNYLSWYQQKPGQPPKLLIYWASTRESGVPDRFSGSGSGTDFTLTISSVQAEDVAVYHCQNDYSFPYTFGQGTKLEIK",2.1 nM,0.000847 s⁻¹,403000 M⁻¹ s⁻¹
"germline variant antibody 16 (H1916B06 / K1916B06) (antibody, V domains shown, IGHG1/IGKC expression vectors; measured from CHO culture supernatant; also called Antibody ID 16) VH: QVQLVQSGTEVKKPGASVKVSCKASGYTFTGYAMYWVRQAPGQGLEWIGLIRTFSGGVTYNQKFRERVTMTVDKSISTAYMELSRLRSDDTAVYYCAKSGTVRGFAYWGQGTLVTVSS VL: DIVMTQSPDSLAVSLGERATINCKSSQSLLNSGNQKNYLTWYHQKPGQPPKLLIYWASTRESGVPDRFTGSGSGTDFTLTISSVQAEDVAVYHCQNDYSYPYTFGQGTKLEIK",1.47 nM,0.000523 s⁻¹,356000 M⁻¹ s⁻¹
"germline variant antibody 43 (H1916E03 / K1916E03) (antibody, V domains shown, IGHG1/IGKC expression vectors; measured from CHO culture supernatant; also called Antibody ID 43) VH: QVQLVQSGAEVKKPGASVKVSCKGSGYTFTEYAMYWVRQAPGQGMEWIGLIRTFSGDVSYNQKFKGRATMTVDKSISTAYMELSRLRSDDTAVYYCAKSGTVRGFAYWGQGTLVTVSS VL: DIVMTQSPDSLAVSLGERATINCKSSQSLLNSGNQKNYLTWYQQKPGQPPKMLIYWASTRESGVPDRFTGSGSGTDFTLTISSVQAEDVAVYHCQNDYSYPYTFGQGTKLEIK",1.28 nM,0.000477 s⁻¹,373000 M⁻¹ s⁻¹
"germline variant antibody 6 (H1916A07 / K1916A07) (antibody, V domains shown, IGHG1/IGKC expression vectors; measured from CHO culture supernatant; also called Antibody ID 6) VH: QVQLVQSGAEVKKPGASVKVSCKGSGYTFTEYAMYWVRQAPGQGLEWMGLIRTFSGGVSYNQKFKGRATMTVDTSISTAYMELSRLRSDDTAVYYCAKSGTVRGFAYWGQGTLVTVSS VL: DIVMTQSPDSLAVSLGERATINCKSSQSLLNSGNQKNYLSWYQQKPGQPPKMLIYWASTRESGVPDRFTGSGSGTDFTLTISSLQAEDVAVYHCQNDYSYPYTFGQGTKLEIK",2.7 nM,0.000579 s⁻¹,214000 M⁻¹ s⁻¹
"germline variant antibody 25 (H1916C07 / K1916C07) (antibody, V domains shown, IGHG1/IGKC expression vectors; measured from CHO culture supernatant; also called Antibody ID 25) VH: QVQLVQSGAEVKKPGASVKVSCKASGYTFTEYAMYWVRQAPGQGLEWMGLIRTFSGGVSYNQKFRGRATMTVDTSISTAYMELSRLRSDDTAVYYCAKSGTVRGFAYWGQGTLVTVSS VL: DIVMTQSPDSLAVSLGERATINCKSSQSLLNSGNQKNYLTWYQQKPGQPPKMLIYWASTRESGVPDRFTGSGSGTDFTLTISSVQAEDVAVYYCQNDYSFPYTFGQGTKLEIK",1.69 nM,0.000632 s⁻¹,374000 M⁻¹ s⁻¹
"germline variant antibody 31 (H1916D01 / K1916D01) (antibody, V domains shown, IGHG1/IGKC expression vectors; measured from CHO culture supernatant; also called Antibody ID 31) VH: QVQLVQSGTEVKKPGASVKVSCKGSGYTFTEYAMYWVRQAPGQGLEWMGLIRTFSGGLTYNQKFKDRVTMTVDKSISTAYMELSRLRSDDTAVYYCAKSGTVRGFAYWGQGIPVTVSS VL: DIVMTQSPDSLAVSLGERATINCKSSQSLLNSSNQKNYLTWYQQKPGQPPKLLIYWASTRESGVPDRFTGSGSGTDFTLTISSLQAEDVAVYHCQNDYSYPYTFGQGTKLEIK",0.418 nM,0.000211 s⁻¹,505000 M⁻¹ s⁻¹
"germline variant antibody 4 (H1916A05 / K1916A05) (antibody, V domains shown, IGHG1/IGKC expression vectors; measured from CHO culture supernatant; also called Antibody ID 4) VH: QVQLVQSGAEVKKPGASVKVSCKASGYTFTEYAMYWVRQAPGQSLEWMGLIRTFSGDVSYNQKFQDRVTMTVDKSISTAYMELSRLRSDDTAVYYCAKSGTVRGFAYWGQGTLVTVSS VL: DIVMTQSPDSLAVSLGERATINCKSSQSLLNSSNQKNYLSWYHQKPGQPPKLLIYWASTRESGVPDRFTGSGSGTDFTLTISSVQAEDVAVYYCQNDYSYPYTFGQGTKLEIK",1.43 nM,0.000501 s⁻¹,351000 M⁻¹ s⁻¹
"germline variant antibody 36 (H1916D06 / K1916D06) (antibody, V domains shown, IGHG1/IGKC expression vectors; measured from CHO culture supernatant; also called Antibody ID 36) VH: QVQLVQSGAEVKKPGASVKVSCKGSGYTFTDYAMYWVRQAPGQGMEWIGVIRTFSGGVSYNQKFRDRVTMTVDKSISTAYMELSRLRSDDTAVYYCAKSGTVRGFAYWGQGTLVTVSS VL: DIVMTQSPDSLAVSLGERATINCKSSQSLLNSSNQKNYLTWYHQKPGQPPKMLIYWASTRESGVPDRFSGSGSGTDFTLTISSVQEEDVAVYHCQNDYSFPYTFGQGTKLEIK",0.44 nM,0.00028 s⁻¹,638000 M⁻¹ s⁻¹
"germline variant antibody 34 (H1916D04 / K1916D04) (antibody, V domains shown, IGHG1/IGKC expression vectors; measured from CHO culture supernatant; also called Antibody ID 34) VH: QVQLVQSGAEVKKPGASVKVSCKASGYTFTDYAMYWVRQAPGQGMEWIGVIRTFSGGVTYNQKFRGRVTMTVDTSISTAYMELSRLRSDDTAVYYCAKSGTVRGFAYWGQGTLVTVSS VL: DIVMTQSTDSLAVSLGERATINCKSSQSLLNSSNQKNYLTWYQQKPGQPPKLLIYWASTRESGVPDRFTGSGSGTDFTLTISSLQAEDVAVYHCQNDYSYPYTFGQGTKLEIK",0.458 nM,0.000255 s⁻¹,557000 M⁻¹ s⁻¹
"germline variant antibody 29 (H1916C11 / K1916C11) (antibody, V domains shown, IGHG1/IGKC expression vectors; measured from CHO culture supernatant; also called Antibody ID 29) VH: QVQLVQSGAEVKKPGASVKVSCKGSGYTFTDYAMYWVRQAPGQGLEWIGVIRTFSGGVTYNQKFKGRATMTVDTSISTAYMELSRLRSDDTAVYYCAKSGTVRGFAYWGQGTLVTVSS VL: DIVMTQSPDSLAVSLGERATINCKSSQSLLNSSNQKNYLSWYQQKPGQPPKLLIYWASTRESGVPDRFSGSGSGTDFTLTISSLQAEDVAVYHCQNDYSYPYTFGQGTKLEIK",1.06 nM,0.000313 s⁻¹,295000 M⁻¹ s⁻¹
"germline variant antibody 2 (H1916A03 / K1916A03) (antibody, V domains shown, IGHG1/IGKC expression vectors; measured from CHO culture supernatant; also called Antibody ID 2) VH: QVQLVQSGAEVKKPGASVKVSCKASGYTFTEYAMHWVRQAPGQGMEWIGLIRTYSGGVSYNQKFRGRATMTVDKSISTAYMELSRLRSDDTAVYYCAKSGTVRGFAYWGQGTLVTVSS VL: DIVMTQSPDSLAVSLGERATINCKSSQSLLNSGNQKNYLSWYHQKPGQPPKLLIYWASTRESGVPDRFSGSGSGTDFTLTISSVQAEDVAVYYCQNEYSFPYTFGQGTKLEIK",4.23 nM,0.00234 s⁻¹,553000 M⁻¹ s⁻¹
"germline variant antibody 1 (H1916A01 / K1916A01) (antibody, V domains shown, IGHG1/IGKC expression vectors; measured from CHO culture supernatant; also called Antibody ID 1) VH: QVQLVQSGTEVKKPGASVKVSCKGSGYTFTEYAMYWVRQAPGQGLEWIGVIRTYSGGVTYNQKFQGRATMTVDTSISTAYMELSRLRSDDTAVYYCAKSGTVRGFAYWGQGTLVTVSS VL: DIVMTQSPDSLAVSLGERATINCKSSQSLLNSGNQKNYLTWYHQKPGQPPKMLIYWASTRESGVPDRFSGSGSGTDFTLTISSVQAEDVAVYHCQNDYSYPYTFGQGTKLEIK",0.744 nM,0.000348 s⁻¹,468000 M⁻¹ s⁻¹
"germline variant antibody 39 (H1916D09 / K1916D09) (antibody, V domains shown, IGHG1/IGKC expression vectors; measured from CHO culture supernatant; also called Antibody ID 39) VH: QVQLVQSGAEVKKPGASVKVSCKGSGYTFTGYAMHWVRQAPGQGLEWMGLIRTYSGGVSYNQKFRERATMTVDTSISTAYMELSRLRSDDTAVYYCAKSGTVRGFAYWGQGTLITVSS VL: DIVMTQSPDSLAVSLGERATINCKSSQSLLNSSNQKNYLTWYQQKPGQPPKLLIYWASTRESGVPDRFTGSGSGTDFTLTISSVQAEDVAVYHCQNEYSFPYTFGQGTKLEIK",0.255 nM,0.000997 s⁻¹,3.91e+06 M⁻¹ s⁻¹
"germline variant antibody 33 (H1916D03 / K1916D03) (antibody, V domains shown, IGHG1/IGKC expression vectors; measured from CHO culture supernatant; also called Antibody ID 33) VH: QVQLVQSGAEVKKPGASVKVSCKASGYTFTGYAMYWVRQAPGQGMEWIGLIRTYSGGVTYNQKFQGRVTMTVDTSISTAYMELSRLRSDDTAVYYCAKSGTVRGFAYWGQGTLVTVSS VL: DIVMTQSPDSLAVSLGERATINCKSSQSLLNSGNQKNYLSWYHQKPGQPPKLLIYWASTRESGVPDRFSGSGSGTDFTLTISSVQAEDVAVYHCQNEYSYPYTFGQGTKLEIK",0.0901 nM,0.00101 s⁻¹,1.12e+07 M⁻¹ s⁻¹
